Entries after “also recorded” stand apart in the source; their conditions may differ.
Legend:
[1] = tested on: HAUSP TRAF-like domain (residues 1–206); assay: gel filtration binding assay with HAUSP (residues 1–206); conditions: Superdex-200, 25 mM Tris pH 8.0, 100 mM NaCl, 2 mM DTT, 4 °C, SDS-PAGE/Coomassie, protein alone, no competitor
Protocol: (§1) Size-exclusion chromatography (gel filtration), using a Superdex-200 column (10/30, Amersham Pharmacia Biotech, Piscataway, New Jersey, United States), was employed to carry out all the in vitro binding assays. Proteins subjected to binding tests were incubated at 4 °C for at least 45 min to allow equilibrium to be reached. The flow rate was 0.5 ml/min, and the buffer contained 25 mM Tris (pH 8.0), 100 mM NaCl, and 2 mM DTT. All fractions were collected at 0.5 ml each. Aliquots of relevant fractions were mixed with SDS sample buffer and subjected to SDS-polyacrylamide gel electrophoresis. The proteins were visualized by Coomassie Blue staining. The column was calibrated with molecular-mass standards.

[2] = tested on: HAUSP TRAF-like domain (residues 1–206); assay: in vitro competition assay using gel filtration chromatography, MDM2 versus p53; type: binding; conditions: 10-fold molar equivalence of p53 (351–382) preincubated with HAUSP 5 min at 4 °C, then one molar equivalence of MDM2 (208–289) 45 min at 4 °C, SDS-PAGE/Coomassie
[3] = target: T1, HAUSP TRAF-like domain (residues 53–206) (Homo sapiens, UniProt Q93009); assay: gel filtration binding assay of MDM2 fragments with HAUSP TRAF-like domain; conditions: Superdex-200, HAUSP residues 53–206, 25 mM Tris pH 8.0, 100 mM NaCl, 2 mM DTT, 4 °C
T1 construct: GST (N); made in house; host or cells: Escherichia coli BL21(DE3), vector pGEX-2T
T1 sequence (Q93009 53-206): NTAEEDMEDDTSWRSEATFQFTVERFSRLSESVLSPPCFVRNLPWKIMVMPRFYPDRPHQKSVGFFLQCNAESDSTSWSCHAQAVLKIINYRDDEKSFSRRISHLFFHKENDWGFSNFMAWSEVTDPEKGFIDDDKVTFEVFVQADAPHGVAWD
Protocol: as §1

Molecule | complex formation with HAUSP (residues 1–206) [1] | complex formation with HAUSP in competition [2] | complex formation with HAUSP TRAF-like domain [3]
MDM2 (residues 208–289): MDM2 fragment, residues 208–289 (protein) ERSSSSESTGTPSNPDLDAGVSEHSGDWLDQDSVSDQFSVEFEVESLDSEDYSLSEEGQELSDEDDEVYQVTVYQAGESDTD | interacts | formed a stable complex only with MDM2; also recorded: formed a stable complex with HAUSP | –
MDM2 fragment residues 223–289: MDM2 fragment encompassing residues 223–289 (protein) DLDAGVSEHSGDWLDQDSVSDQFSVEFEVESLDSEDYSLSEEGQELSDEDDEVYQVTVYQAGESDTD | – | – | formed a stable complex
MDM2 fragment residues 170–232: MDM2 fragment encompassing residues 170–232 (protein) ENSDELSGERQRKRHKSDSISLSFDESLALCVIREICCERSSSSESTGTPSNPDLDAGVSEHS | – | – | formed a stable complex
